Read-outs that look alike come from different tables or passages of the source.

We go through 2 substances from PMC2190426.

Test [1] deals with cell-bound C3b on sheep erythrocytes (EAC4b,3b, called EC3b) (human) (UniProt P01024). Put plainly: radioligand binding.
The target is the same in test [2]. The test is described as follows: radioligand binding. The source holds these as a separate data set.

Chain of UniProt P01024 (P01024 23-667, chain 1 of 2): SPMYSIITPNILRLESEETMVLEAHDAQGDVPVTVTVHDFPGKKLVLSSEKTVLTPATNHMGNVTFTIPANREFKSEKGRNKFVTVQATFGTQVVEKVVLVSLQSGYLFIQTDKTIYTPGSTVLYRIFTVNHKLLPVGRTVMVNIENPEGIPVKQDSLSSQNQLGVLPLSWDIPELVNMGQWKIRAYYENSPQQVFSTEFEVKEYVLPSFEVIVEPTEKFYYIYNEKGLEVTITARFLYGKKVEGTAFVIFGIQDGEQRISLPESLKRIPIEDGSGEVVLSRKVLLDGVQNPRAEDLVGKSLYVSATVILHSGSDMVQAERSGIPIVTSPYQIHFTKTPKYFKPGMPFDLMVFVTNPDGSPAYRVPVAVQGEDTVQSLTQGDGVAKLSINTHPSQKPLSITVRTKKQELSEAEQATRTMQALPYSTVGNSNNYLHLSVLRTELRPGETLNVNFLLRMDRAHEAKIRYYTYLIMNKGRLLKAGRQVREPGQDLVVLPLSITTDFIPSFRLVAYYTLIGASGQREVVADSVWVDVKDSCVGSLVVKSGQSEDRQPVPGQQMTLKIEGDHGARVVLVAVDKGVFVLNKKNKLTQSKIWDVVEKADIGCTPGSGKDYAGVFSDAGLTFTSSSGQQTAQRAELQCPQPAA
Chain of UniProt P01024 (P01024 749-1663, chain 2 of 2): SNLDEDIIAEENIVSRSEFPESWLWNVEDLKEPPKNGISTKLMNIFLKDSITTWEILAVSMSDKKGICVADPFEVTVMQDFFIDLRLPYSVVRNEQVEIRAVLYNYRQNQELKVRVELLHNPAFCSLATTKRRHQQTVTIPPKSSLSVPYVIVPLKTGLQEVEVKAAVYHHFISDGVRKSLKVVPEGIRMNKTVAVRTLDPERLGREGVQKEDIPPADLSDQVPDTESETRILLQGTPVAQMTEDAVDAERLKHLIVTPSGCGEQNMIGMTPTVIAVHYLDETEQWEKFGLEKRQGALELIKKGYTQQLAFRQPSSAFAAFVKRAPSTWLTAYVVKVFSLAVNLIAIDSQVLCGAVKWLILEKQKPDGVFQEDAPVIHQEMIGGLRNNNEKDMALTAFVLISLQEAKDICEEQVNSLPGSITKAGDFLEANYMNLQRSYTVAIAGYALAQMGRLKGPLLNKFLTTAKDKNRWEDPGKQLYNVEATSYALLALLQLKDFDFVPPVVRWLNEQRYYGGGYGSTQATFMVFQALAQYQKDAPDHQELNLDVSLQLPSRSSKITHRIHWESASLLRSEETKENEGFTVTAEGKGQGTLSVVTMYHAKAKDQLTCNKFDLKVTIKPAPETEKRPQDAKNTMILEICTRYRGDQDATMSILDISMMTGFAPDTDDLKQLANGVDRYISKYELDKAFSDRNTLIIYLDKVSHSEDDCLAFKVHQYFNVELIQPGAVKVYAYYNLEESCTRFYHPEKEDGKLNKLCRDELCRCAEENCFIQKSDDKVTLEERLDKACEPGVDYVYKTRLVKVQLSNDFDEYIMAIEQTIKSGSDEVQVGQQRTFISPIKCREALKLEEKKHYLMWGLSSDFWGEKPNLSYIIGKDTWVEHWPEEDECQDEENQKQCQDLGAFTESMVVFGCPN

On to “activated properdin (P) (from UniProt P27918 28-469) (natural protein)”, for which, in test [1], the percent of input taken up is < 1% and the stoichiometry N (molecules P per molecule C3b) is < 10.

For “precursor properdin (pre-P) (from UniProt P27918 28-469) (natural protein)”, the uptake (cpm) is 10700 cpm in test [2] and 378 cpm in test [1].
